Assays:
Assay in all cases: NMR chemical shift titration
[1] = target: T1, CCR7 N-terminus peptide 2-30 (Homo sapiens, UniProt P32248)
T1 chain: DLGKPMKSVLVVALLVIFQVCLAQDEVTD

[2] = target: PSGL-1 N-terminus peptide 1-15 (Homo sapiens, UniProt Q14242, N-terminal pyroglutamate)
[3] = target: T2, PSGL-1 N-terminus peptide 2-15 (Homo sapiens, UniProt Q14242)
T2 chain: PLQLLLLLILLGPG

[4] = target: T3, CCR7 N-terminus peptide 1-30 (Homo sapiens, UniProt P32248)
T3 chain: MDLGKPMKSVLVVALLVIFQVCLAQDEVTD

- Kd [1]: 12 µM
- Kd [2]: 20 µM
- Kd [3]: 18 µM
- Kd [4]: 52 µM
B1: CCL19 (protein)
chain: GTNDAEDCCLSVTQKPIPGYIVRNFHYLLIKDGCRVPAVVFTTLRGRQLCAPPDQPWVERIIQRLQRTSAKMKRRSS
